Measurements as given in the RNAGym collection of RNA variant scans (doi:10.1093/molbev/msab373).

B1: Azoarcus group I ribozyme (parent)
chain: GUGCCUUGCGCCGGGAAACCACGCAAGGGAUGGUGUCAAAUUCGGCGAAACCUAAGCGCCCGCCCGGGCGUAUGGCAACGCCGAGCCAAGCUUCGGCGCCUGCGCCGAUGAAGGUGUAGAGACUAGACGGCACCCACCUAAGGCAAACGCUAUGGUGAAGGCAUAGUCCAGGGAGUGGCGAAAGUCACACAAACCGG

Variants of: B1
Test: reverse-splicing fitness (ratio to wild type); higher = more active; in vitro selection; Mg2+ level not given
How it was run: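 An in vitro group I ribozyme library with randomized positions was T7-transcribed and gel-purified. In triplicate, 10 pmol RNA in EPPS pH 7.5 was reacted with 50 pmoles of a 30-nt RNA substrate for 1 h at 37 °C across several added MgCl2 levels (1–48 mM), then stopped with EDTA. Products were reverse transcribed from a substrate-complementary primer, PCR-amplified and sequenced (HiSeq 4000). Fitness is a variant's read proportion after selection over that before, normalised to wild type.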

Going from GUGCCUUGCGCCGGGAAACCACGCAAGGGAUGGUGUCAAAUUCGGCGAAACCUAAGCGCCCGCCCGGGCGUAUGGCAACGCGGAGCCAAGCUUCGGCGCCUGCGCCGAUGGAGGUGUAGGGACUAGACGGCACCCACCUAAGGCGAACGUUAUGGUGAAGGCAUAGUCAAGGGAGUGGCGAAAGUCACACAAACCGG to GUGCCUUGCGCCGGGAAACCACGCAAGGGAUGGUGUCAAAUUCGGCGAAACCUAAGCGCCCGCCCGGGCGUAUGGCAACGCGGAGCCAAGCUUCGGCGCCUGCGCCGAUGGAGGUGUAGGGACUAGACGGCACCCACCUAAGGCGAACGUUAUGGUGAAGGCAUAGUCGAGGGAGUGGCGAAAGUCACACAAACCGG, the reverse-splicing fitness rises from 0.0144 to 0.0181.

First: GUGCCUUGCGCCGGGAAACCACGCAAGGGAUGGUGUCAAAUUCGGCGAAACCUAAGCGCCCGCCCGGGCGUAUGGCAACGCGGAGCCAAGCUUCGGCGCCUGCGCCGAUGGAGGUGUAGGGACUAGACGGCACCCACCUAAGGCGAACGUUAUGGUGAAGGCAUAGUCUAGGGAGUGGCGAAAGUCACACAAACCGG
Second: GUGCCUUGCGCCGGGAAACCACGCAAGGGAUGGUGUCAAAUUCGGCGAAACCUAAGCGCCCGCCCGGGCGUAUGGCAACGCGGAGCCAAGCUUCGGCGCCUGCGCCGAUGGAGGUGUAGGGACUAGACGGCACCCACCUAAGGCGAACGUUAUGGUGAAGGCAUAGUCUAGGGAGCGGCGAAAGUCACACAAACCGG
The reverse-splicing fitness of the first is lower: 0.0141 for the first, 0.0177 for the second.

Going from GUGCCUUGCGCCGGGAAACCACGCAAGGGAUGGUGUCAAAUUCGGCGAAACCUAAGCGCCCGCCCGGGCGUAUGGCAACGCGGAGCCAAGCUUCGGCGCCUGCGCCGAUGGAGGUGUAGGGACUAGACGGCACCCACCUAAGGCGAACGUUAUGGUGAAGGCAUAGUCUAGGGAGAGGCGAAAGUCACACAAACCGG to GUGCCUUGCGCCGGGAAACCACGCAAGGGAUGGUGUCAAAUUCGGCGAAACCUAAGCGCCCGCCCGGGCGUAUGGCAACGCGGAGCCAAGCUUCGGCGCCUGCGCCGAUGGAGGUGUAGGGACUAGACGGCACCCACCUAAGGCGAACGAUAUGGUGAAGGCAUAGUCCAGGGAGGGGCGAAAGUCACACAAACCGG, the reverse-splicing fitness falls from 0.0177 to 0.0096.

Going from GUGCCUUGCGCCGGGAAACCACGCAAGGGAUGGUGUCAAAUUCGGCGAAACCUAAGCGCCCGCCCGGGCGUAUGGCAACGCGGAGCCAAGCUUCGGCGCCUGCGCCGAUGGAGGUGUAGGGACUAGACGGCACCCACCUAAGGCGAACGAUAUGGUGAAGGCAUAGUCCAGGGAGCGGCGAAAGUCACACAAACCGG to GUGCCUUGCGCCGGGAAACCACGCAAGGGAUGGUGUCAAAUUCGGCGAAACCUAAGCGCCCGCCCGGGCGUAUGGCAACGCGGAGCCAAGCUUCGGCGCCUGCGCCGAUGGAGGUGUAGGGACUAGACGGCACCCACCUAAGGCGAACGGUAUGGUGAAGGCAUAGUCAAGGGAGCGGCGAAAGUCACACAAACCGG, the reverse-splicing fitness falls from 0.0232 to 0.0138.

First: GUGCCUUGCGCCGGGAAACCACGCAAGGGAUGGUGUCAAAUUCGGCGAAACCUAAGCGCCCGCCCGGGCGUAUGGCAACGCGGAGCCAAGCUUCGGCGCCUGCGCCGAUGGAGGUGUAGGGACUAGACGGCACCCACCUAAGGCGAACGGUAUGGUGAAGGCAUAGUCAAGGGAGAGGCGAAAGUCACACAAACCGG
Second: GUGCCUUGCGCCGGGAAACCACGCAAGGGAUGGUGUCAAAUUCGGCGAAACCUAAGCGCCCGCCCGGGCGUAUGGCAACGCGGAGCCAAGCUUCGGCGCCUGCGCCGAUGGAGGUGUAGGGACUAGACGGCACCCACCUAAGGCGAACGGUAUGGUGAAGGCAUAGUCAAGGGAGGGGCGAAAGUCACACAAACCGG
The reverse-splicing fitness of the first is higher: 0.0146 for the first, 0.00881 for the second.

Going from GUGCCUUGCGCCGGGAAACCACGCAAGGGAUGGUGUCAAAUUCGGCGAAACCUAAGCGCCCGCCCGGGCGUAUGGCAACGCGGAGCCAAGCUUCGGCGCCUGCGCCGAUGGAGGUGUAGGGACUAGACGGCACCCACCUAAGGCGAACGGUAUGGUGAAGGCAUAGUCGAGGGAGGGGCGAAAGUCACACAAACCGG to GUGCCUUGCGCCGGGAAACCACGCAAGGGAUGGUGUCAAAUUCGGCGAAACCUAAGCGCCCGCCCGGGCGUAUGGCAACGCGGAGCCAAGCUUCGGCGCCUGCGCCGAUGGAGGUGUAGGGACUAGACGGCACCCACCUAAGGCGAACGGUAUGGUGAAGGCAUAGUCGAGGGAGAGGCGAAAGUCACACAAACCGG, the reverse-splicing fitness rises from 0.0063 to 0.0111.

Going from GUGCCUUGCGCCGGGAAACCACGCAAGGGAUGGUGUCAAAUUCGGCGAAACCUAAGCGCCCGCCCGGGCGUAUGGCAACGCGGAGCCAAGCUUCGGCGCCUGCGCCGAUGGAGGUGUAGGGACUAGACGGCACCCACCUAAGGCGAACGGUAUGGUGAAGGCAUAGUCGAGGGAGCGGCGAAAGUCACACAAACCGG to GUGCCUUGCGCCGGGAAACCACGCAAGGGAUGGUGUCAAAUUCGGCGAAACCUAAGCGCCCGCCCGGGCGUAUGGCAACGCGGAGCCAAGCUUCGGCGCCUGCGCCGAUGGAGGUGUAGGGACUAGACGGCACCCACCUAAGGCGAACGUUAUGGUGAAGGCAUAGUCGAGGGAGGGGCGAAAGUCACACAAACCGG, the reverse-splicing fitness falls from 0.0118 to 0.00532.

For GUGCCUUGCGCCGGGAAACCACGCAAGGGAUGGUGUCAAAUUCGGCGAAACCUAAGCGCCCGCCCGGGCGUAUGGCAACGCGGAGCCAAGCUUCGGCGCCUGCGCCGAUGGAGGUGUAGGGACUAGACGGCACCCACCUAAGGCGAACGUUAUGGUGAAGGCAUAGUCGAGGGAGCGGCGAAAGUCACACAAACCGG, the reverse-splicing fitness was 0.0201.
